In article PMC10164062 (Cancer discovery, 2023):

Biological target: the molecule itself
Assay: cross-linking

B1: p53R245W (mouse, DNA binding domain mutant) (natural protein, mouse (endogenous in MEFs), UniProt P02340 1-390, looked up)
chain: MTAMEESQSDISLELPLSQETFSGLWKLLPPEDILPSPHCMDDLLLPQDVEEFFEGPSEALRVSGAPAAQDPVTETPGPVAPAPATPWPLSSFVPSQKTYQGNYGFHLGFLQSGTAKSVMCTYSPPLNKLFCQLAKTCPVQLWVSATPPAGSRVRAMAIYKKSQHMTEVVRRCPHHERCSDGDGLAPPQHLIRVEGNLYPEYLEDRQTFRHSVVVPYEPPEAGSEYTTIHYKYMCNSSCMGGMNWRPILTIITLEDSSGNLLGRDSFEVRVCACPGRDRRTEEENFRKKEVLCPELPPGSAKRALPTCTSASPPQKKKPLDGEYFTLKIRGRKRFEMFRELNEALELKDAHATEESGDSRAHSSYLKTKKGQSTSRHKKTMVKKVGPDSD
stoichiometry N: 4
